Data reported in patent US20210102950A1 (YALE UNIVERSITY, published 2021).

Biological target: T1, ubiquitin (single molecule, mono-ubiquitin) (Homo sapiens (Human), UniProt P0CG47 1-76)
T1 construct: also called one ubiquitin
Test: isothermal titration calorimetry, one OtUBD to one ubiquitin

B1: OtUBD (ubiquitin binding domain of an effector protein of Orientia tsutsugamushi), native unmodified domain (other)
chain: VNFLSENRMITSAAAALADTLLKNNNRITEGVLVDRIFDNKILSVQEKQQLLNNLLDNHIKENKSLTKESLTRMLASTHFVQQQANVLLNEKFNK
notes: also called OtUDB
Work on B1 yielded a Kd of 5.3 nM.
